Assay results published in the supplement of paper PMC10065799, “High-throughput profiling of sequence recognition by tyrosine kinases and SH2 domains using bacterial peptide display” (eLife, 2023).

Legend:
SHP2-C SH2 = experiment: SH2 binding enrichment of the phosphorylated peptide, bacterial display (enrichment ratio); higher = better substrate or ligand; peptides without Tyr show the background
Grb2 SH2 = Grb2 SH2 (UniProt P62993); experiment: as above
c-Src SH2 = experiment: as above
c-Abl (mouse) = experiment: phosphorylation enrichment, bacterial display (enrichment ratio); higher = better substrate or ligand; peptides without Tyr show the background
Fer (mouse) = experiment: as above
MERTK = MERTK (UniProt Q12866); experiment: as above
Sequence of MERTK (Q12866 whole entry, looked up): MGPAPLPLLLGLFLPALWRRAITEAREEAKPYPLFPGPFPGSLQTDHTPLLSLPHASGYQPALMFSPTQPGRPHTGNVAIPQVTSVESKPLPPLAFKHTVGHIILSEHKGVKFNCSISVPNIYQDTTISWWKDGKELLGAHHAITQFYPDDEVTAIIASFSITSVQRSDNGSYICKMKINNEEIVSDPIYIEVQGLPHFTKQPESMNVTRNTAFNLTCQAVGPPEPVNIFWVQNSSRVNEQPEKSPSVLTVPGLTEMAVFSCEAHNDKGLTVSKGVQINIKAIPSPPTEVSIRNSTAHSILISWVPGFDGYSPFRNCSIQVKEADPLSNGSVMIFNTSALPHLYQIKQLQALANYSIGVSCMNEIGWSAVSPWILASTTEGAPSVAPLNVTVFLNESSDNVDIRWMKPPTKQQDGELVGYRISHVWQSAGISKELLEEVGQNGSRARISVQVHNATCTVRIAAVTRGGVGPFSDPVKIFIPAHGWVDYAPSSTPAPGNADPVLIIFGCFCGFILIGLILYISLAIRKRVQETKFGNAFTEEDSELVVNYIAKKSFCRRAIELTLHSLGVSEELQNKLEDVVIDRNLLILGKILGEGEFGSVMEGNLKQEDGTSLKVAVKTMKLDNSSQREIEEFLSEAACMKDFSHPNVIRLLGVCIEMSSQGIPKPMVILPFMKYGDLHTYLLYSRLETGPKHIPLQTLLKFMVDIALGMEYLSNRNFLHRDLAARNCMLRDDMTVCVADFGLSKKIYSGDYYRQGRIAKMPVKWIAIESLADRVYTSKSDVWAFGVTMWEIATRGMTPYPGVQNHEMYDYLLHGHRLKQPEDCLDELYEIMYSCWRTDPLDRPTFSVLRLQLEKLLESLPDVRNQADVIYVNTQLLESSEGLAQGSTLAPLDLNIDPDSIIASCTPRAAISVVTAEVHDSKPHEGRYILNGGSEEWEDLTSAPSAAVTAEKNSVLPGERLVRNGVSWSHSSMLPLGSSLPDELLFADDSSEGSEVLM

AncSZ = experiment: as above
Fes = Fes (UniProt P07332); experiment: as above
Sequence of Fes (P07332 whole entry, looked up): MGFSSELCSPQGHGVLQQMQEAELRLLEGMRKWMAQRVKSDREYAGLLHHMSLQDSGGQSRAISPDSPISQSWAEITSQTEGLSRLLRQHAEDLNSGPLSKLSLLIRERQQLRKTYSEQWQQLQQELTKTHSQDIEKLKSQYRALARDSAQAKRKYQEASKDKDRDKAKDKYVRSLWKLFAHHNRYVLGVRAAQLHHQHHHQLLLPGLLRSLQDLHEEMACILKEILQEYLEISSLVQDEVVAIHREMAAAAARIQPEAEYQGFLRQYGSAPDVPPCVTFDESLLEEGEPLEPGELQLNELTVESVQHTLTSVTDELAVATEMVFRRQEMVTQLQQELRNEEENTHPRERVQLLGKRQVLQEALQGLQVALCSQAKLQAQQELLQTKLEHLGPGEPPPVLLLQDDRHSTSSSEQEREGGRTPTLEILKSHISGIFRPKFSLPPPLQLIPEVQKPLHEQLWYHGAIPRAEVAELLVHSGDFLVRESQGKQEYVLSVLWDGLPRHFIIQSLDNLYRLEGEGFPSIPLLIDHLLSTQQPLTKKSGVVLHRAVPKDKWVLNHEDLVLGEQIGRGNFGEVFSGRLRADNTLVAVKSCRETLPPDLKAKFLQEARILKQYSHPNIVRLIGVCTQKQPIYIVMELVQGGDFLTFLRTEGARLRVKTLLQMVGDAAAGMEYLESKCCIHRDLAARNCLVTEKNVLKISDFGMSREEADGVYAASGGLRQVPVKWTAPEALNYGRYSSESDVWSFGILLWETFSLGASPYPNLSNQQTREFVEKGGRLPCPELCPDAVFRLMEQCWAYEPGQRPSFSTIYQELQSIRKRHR

Fyn = Fyn (UniProt P06241); experiment: as above
Sequence of Fyn (P06241 whole entry, looked up): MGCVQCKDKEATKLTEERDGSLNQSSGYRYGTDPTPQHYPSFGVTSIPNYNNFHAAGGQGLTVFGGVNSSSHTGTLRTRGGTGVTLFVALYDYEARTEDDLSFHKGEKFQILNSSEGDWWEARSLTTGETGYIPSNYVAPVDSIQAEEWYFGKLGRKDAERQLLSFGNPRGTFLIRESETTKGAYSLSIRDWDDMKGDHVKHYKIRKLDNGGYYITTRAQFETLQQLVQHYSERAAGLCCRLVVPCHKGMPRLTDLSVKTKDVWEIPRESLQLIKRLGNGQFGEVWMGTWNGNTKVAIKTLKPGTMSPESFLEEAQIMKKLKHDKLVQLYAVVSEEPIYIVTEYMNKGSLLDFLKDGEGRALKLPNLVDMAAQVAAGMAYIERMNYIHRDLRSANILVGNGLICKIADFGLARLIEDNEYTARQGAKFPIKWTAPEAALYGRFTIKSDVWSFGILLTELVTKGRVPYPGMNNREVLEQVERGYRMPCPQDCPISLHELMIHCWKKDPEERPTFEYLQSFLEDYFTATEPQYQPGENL

FGFR1 = FGFR1 (UniProt P11362); experiment: as above
EPHB2 = EPHB2 (UniProt P29323); experiment: as above
c-Src = experiment: as above
FGFR3 = FGFR3 (UniProt P22607); experiment: as above
Sequence of FGFR3 (P22607 whole entry, looked up): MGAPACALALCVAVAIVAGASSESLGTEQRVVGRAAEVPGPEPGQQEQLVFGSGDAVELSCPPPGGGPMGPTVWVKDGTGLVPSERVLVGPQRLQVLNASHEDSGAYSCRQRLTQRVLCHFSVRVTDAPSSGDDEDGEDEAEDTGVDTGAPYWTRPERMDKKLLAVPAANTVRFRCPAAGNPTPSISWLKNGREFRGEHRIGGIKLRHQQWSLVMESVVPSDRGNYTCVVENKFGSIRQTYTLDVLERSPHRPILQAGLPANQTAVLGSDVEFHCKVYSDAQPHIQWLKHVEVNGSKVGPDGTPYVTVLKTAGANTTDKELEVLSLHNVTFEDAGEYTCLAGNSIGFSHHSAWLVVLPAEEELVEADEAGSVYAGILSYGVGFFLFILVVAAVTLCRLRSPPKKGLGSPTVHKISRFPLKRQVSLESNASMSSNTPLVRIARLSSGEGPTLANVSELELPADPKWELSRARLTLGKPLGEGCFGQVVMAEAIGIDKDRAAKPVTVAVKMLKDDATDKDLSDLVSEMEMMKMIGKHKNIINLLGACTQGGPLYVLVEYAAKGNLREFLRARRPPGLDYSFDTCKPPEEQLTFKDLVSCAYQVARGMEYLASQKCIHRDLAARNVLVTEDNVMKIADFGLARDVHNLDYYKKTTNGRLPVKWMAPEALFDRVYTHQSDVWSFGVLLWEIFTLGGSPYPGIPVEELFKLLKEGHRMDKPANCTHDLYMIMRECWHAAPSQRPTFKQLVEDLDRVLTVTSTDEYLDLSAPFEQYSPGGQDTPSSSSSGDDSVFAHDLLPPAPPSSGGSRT

Hck = Hck (UniProt P08631); experiment: as above
Sequence of Hck (P08631 whole entry, looked up): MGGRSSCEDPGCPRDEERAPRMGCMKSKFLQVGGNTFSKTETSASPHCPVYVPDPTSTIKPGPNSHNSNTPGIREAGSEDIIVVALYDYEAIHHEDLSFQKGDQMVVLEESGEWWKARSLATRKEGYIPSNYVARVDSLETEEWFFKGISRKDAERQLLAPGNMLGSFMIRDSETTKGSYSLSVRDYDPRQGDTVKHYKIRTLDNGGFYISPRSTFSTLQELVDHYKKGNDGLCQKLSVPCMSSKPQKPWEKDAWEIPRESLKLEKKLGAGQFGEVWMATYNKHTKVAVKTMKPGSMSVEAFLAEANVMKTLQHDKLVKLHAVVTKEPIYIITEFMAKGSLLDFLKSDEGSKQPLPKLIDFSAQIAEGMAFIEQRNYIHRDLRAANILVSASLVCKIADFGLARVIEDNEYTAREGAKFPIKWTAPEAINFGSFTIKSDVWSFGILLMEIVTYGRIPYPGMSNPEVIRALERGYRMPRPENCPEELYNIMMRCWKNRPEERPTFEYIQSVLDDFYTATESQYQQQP

EPHB1 = EPHB1 (UniProt P54762); experiment: as above
Jak2 = Jak2 (UniProt O60674); experiment: as above
Sequence of Jak2 (O60674 whole entry, looked up, the tested form may be a part): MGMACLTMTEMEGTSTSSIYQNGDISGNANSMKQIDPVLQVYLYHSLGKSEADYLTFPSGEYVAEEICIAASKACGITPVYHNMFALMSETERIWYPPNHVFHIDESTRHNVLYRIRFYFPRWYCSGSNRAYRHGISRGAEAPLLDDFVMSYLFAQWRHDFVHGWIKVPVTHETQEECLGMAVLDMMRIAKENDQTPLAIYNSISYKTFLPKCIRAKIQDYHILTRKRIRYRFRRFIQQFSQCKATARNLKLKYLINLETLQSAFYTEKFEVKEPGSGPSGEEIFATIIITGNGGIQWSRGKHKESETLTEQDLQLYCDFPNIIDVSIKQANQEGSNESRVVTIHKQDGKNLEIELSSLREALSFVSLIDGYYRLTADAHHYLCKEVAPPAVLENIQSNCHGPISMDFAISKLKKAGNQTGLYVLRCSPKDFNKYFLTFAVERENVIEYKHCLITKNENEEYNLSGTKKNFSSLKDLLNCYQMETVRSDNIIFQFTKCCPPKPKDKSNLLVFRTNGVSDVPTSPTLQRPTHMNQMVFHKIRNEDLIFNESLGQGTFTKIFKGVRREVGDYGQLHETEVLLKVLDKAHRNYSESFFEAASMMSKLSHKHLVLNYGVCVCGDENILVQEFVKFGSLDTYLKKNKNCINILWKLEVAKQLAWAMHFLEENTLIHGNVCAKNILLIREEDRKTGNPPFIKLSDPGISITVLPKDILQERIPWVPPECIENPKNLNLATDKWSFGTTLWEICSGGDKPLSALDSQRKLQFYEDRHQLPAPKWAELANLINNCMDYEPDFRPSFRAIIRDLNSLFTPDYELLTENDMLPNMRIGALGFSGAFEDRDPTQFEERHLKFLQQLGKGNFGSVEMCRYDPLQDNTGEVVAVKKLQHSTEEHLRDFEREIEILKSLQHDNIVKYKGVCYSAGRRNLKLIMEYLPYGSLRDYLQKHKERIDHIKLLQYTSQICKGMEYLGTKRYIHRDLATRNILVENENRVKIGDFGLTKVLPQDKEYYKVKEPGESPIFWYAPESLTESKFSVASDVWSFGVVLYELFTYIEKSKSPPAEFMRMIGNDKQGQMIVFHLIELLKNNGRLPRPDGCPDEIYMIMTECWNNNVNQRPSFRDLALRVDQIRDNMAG
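For SH2 binding enrichment of the phosphorylated peptide, bacterial display in this document: peptide library displayed on the E. coli surface as eCPX fusions, selected cells deep-sequenced, score is each peptide's frequency after selection divided by its frequency in the input.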
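For phosphorylation enrichment, bacterial display in this document: 11-residue human phosphosite peptides and single-mutation variants displayed on the E. coli surface, counted by deep sequencing, each peptide's frequency after selection divided by its frequency in the unselected input library; frequency after pTyr selection over input frequency; kinase dosed for 20-30% of maximal phosphorylation in three min.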

Sequence of Grb2 SH2 (P62993 whole entry, looked up): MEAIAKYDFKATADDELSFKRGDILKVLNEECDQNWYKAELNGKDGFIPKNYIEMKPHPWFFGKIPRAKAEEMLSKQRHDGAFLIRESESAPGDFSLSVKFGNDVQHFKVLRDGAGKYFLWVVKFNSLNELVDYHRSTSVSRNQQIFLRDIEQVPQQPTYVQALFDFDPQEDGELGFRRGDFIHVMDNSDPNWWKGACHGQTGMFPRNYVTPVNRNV

Sequence	SH2 binding enrichment (SHP2-C SH2)	SH2 binding enrichment (Grb2 SH2)	SH2 binding enrichment (c-Src SH2)	phosphorylation enrichment (c-Abl (mouse))	phosphorylation enrichment (Fer (mouse))	phosphorylation enrichment (MERTK)	phosphorylation enrichment (AncSZ)	phosphorylation enrichment (Fes)	phosphorylation enrichment (Fyn)	phosphorylation enrichment (FGFR1)	phosphorylation enrichment (EPHB2)	phosphorylation enrichment (c-Src)	phosphorylation enrichment (FGFR3)	phosphorylation enrichment (Hck)	phosphorylation enrichment (EPHB1)	phosphorylation enrichment (Jak2)
NLRQQYNSPQE [UMPS_Y432_G429R]	0.769	0.829	0.635	0.354	0.345	0.293	0.634	0.587	0.437	0.464	0.439	0.316	0.43	0.451	0.382	0.592
DKITQYVEEVR [STX2_Y49_K54R]	0.719	0.905	0.45	0.605	0.486	0.411	0.999	1.08	0.427	0.477	0.551	0.417	0.609	0.517	0.739	0.872
KWRGQYDVANK [BTK_Y425_I429N]	0.957	1.08	1.2	0.594	0.446	0.387	0.533	0.705	0.359	0.439	0.396	0.376	0.57	0.445	0.381	0.6
SVVVPYEPPEI [TP53_Y220_V225I]	0.867	0.854	0.844	0.8	0.4	0.37	1.15	1.25	0.408	0.44	0.62	0.447	0.665	0.616	0.552	0.967
HIPFRYPKEFQ [IDS_Y234]	1.12	1.1	0.862	0.946	0.344	0.645	0.826	1.26	0.424	0.442	0.641	0.756	0.66	0.564	0.521	0.815
IPGVEYLVSII [TNC_Y1775]	0.944	1	0.648	0.664	0.445	0.409	1.02	1.14	0.432	0.552	0.574	0.5	0.723	0.491	0.667	1.19
ITKNPYDPPGR	0.622	0.868	0.513	0.556	0.437	0.424	0.657	0.766	0.432	0.427	0.428	0.433	0.645	0.454	0.457	0.662
QMQAAYQKVVA [HBD_Y131]	0.418	1.03	0.937	0.422	0.519	0.412	0.504	0.578	0.47	0.419	0.441	0.293	0.72	0.47	0.373	0.497
HRDSSYYWEIE [RAF1_Y340_Q335H]	0.938	0.842	10.9	0.818	0.612	4.59	1.69	1.67	1.97	6.05	1.72	1.92	4.34	1.47	3.07	1.03
RFMVGYEMLAQ [GALT_Y339_K334R]	0.617	0.836	2.32	0.849	0.677	0.635	1.38	1.41	0.719	0.875	0.811	0.83	0.873	0.751	0.939	1.4
PADCRYYTFPQ [GAMT_Y222_A224T]	1.36	1.01	2.15	1.7	4.15	11	4.04	2.01	2.82	6	2.18	5.45	5	2.64	3.34	4.4
AESPEYVHMYT [FAM111A_Y511]	0.586	0.768	0.693	0.825	0.467	0.413	1.34	1.01	0.423	1.92	0.491	0.531	1.26	0.469	0.486	0.962
IVRSLYKDLED [VHL_Y185_E186K]	0.716	0.999	0.785	0.691	0.688	0.496	1.25	1.19	0.535	0.502	0.559	0.445	0.688	0.479	0.497	0.877
EGDGVYTLNNK [HP_Y125_E130K]	0.426	1.08	0.377	0.62	0.455	0.354	0.86	0.857	7.02	0.48	0.378	4.5	0.586	3.23	0.601	0.749
MPAVTYTLAMR [MEGF10_Y895_P897L]	3.33	0.758	0.726	0.724	0.488	0.437	1.08	1.03	0.53	0.453	0.588	0.503	0.73	0.514	0.516	0.845
PVKTPYSLKRW [BMPR2_Y979_R974P]	1.2	1.46	0.992	1.14	0.609	0.586	1.04	1.49	0.63	0.653	0.84	0.987	0.789	0.427	0.499	1.36
KNNDGYIDFAE [MCFD2_Y135_YF]	0.999	0.707	14.3	0.663	0.559	0.377	0.921	1.06	0.406	0.556	0.483	0.395	0.725	0.513	0.492	0.903
